System: Escherichia coli TOP10
Assay: shrunken log2 fold change of peptide-encoding DNA abundance (4.5 h post-induction vs induction); higher = less antimicrobial activity (less host growth inhibition)
Conditions: time post-induction: 4.5 h; library: site-saturation at positions 5, 18, 19, 20
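Also: peptides expressed intracellularly from a pBAD plasmid library in pooled LB shake-flask culture, induced with 0.3% L-arabinose, DNA abundance read by NGS, three biological replicates, DESeq2 with apeglm shrinkage.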

Row | Sequence | shrunken log2 fold change
1 | RRIRIRPPRLPRPRPRPHVGPRP | -0.0138
2 | RRIRFRPPRLPRPRPRPPHMPRP | -0.137
3 | RRIRFRPPRLPRPRPRPHSNPRP | -0.84
4 | RRIRFRPPRLPRPRPRPKRFPRP | 0.0111
5 | RRIRHRPPRLPRPRPRPAIDPRP | 0.178
6 | RRIRWRPPRLPRPRPRPRSCPRP | 0.083
7 | RRIRMRPPRLPRPRPRPMSIPRP | -0.0109
8 | RRIRQRPPRLPRPRPRPHFQPRP | -0.108
9 | RRIRSRPPRLPRPRPRPQAIPRP | 0.0296
10 | RRIRQRPPRLPRPRPRPKWSPRP | 0.0364
11 | RRIRIRPPRLPRPRPRPNYCPRP | -0.139
12 | RRIRNRPPRLPRPRPRPANWPRP | 0.182
13 | RRIRMRPPRLPRPRPRPLPYPRP | 0.0635
14 | RRIRHRPPRLPRPRPRPMKCPRP | -0.0796
15 | RRIRCRPPRLPRPRPRPHIDPRP | -0.42
16 | RRIRHRPPRLPRPRPRPYQMPRP | -0.113
17 | RRIRERPPRLPRPRPRPCMKPRP | -0.506
18 | RRIRMRPPRLPRPRPRPQFGPRP | 0.104
19 | RRIRVRPPRLPRPRPRPRSVPRP | 0.0756
20 | RRIRSRPPRLPRPRPRPDWRPRP | 0.132
21 | RRIRIRPPRLPRPRPRPVNEPRP | -0.213
22 | RRIRKRPPRLPRPRPRPPDFPRP | 0.12
23 | RRIRERPPRLPRPRPRPVFRPRP | -0.0125
24 | RRIRSRPPRLPRPRPRPMDHPRP | -0.187
25 | RRIRKRPPRLPRPRPRPLTTPRP | 0.539

Row | Sequence | shrunken log2 fold change
26 | RRIRIRPPRLPRPRPRPTPWPRP | 0.154
27 | RRIRTRPPRLPRPRPRPPPWPRP | 0.614
28 | RRIRRRPPRLPRPRPRPKQAPRP | 0.908
29 | RRIRTRPPRLPRPRPRPRLEPRP | 0.32
30 | RRIRVRPPRLPRPRPRPNHAPRP | 0.0625
31 | RRIRDRPPRLPRPRPRPAQSPRP | 0.216
32 | RRIRTRPPRLPRPRPRPPNGPRP | 0.104
33 | RRIRLRPPRLPRPRPRPAKDPRP | -0.136
34 | RRIRERPPRLPRPRPRPIFGPRP | -0.112
35 | RRIRNRPPRLPRPRPRPKVAPRP | 0.0368
36 | RRIRDRPPRLPRPRPRPHGWPRP | 0.861
37 | RRIRDRPPRLPRPRPRPRLDPRP | 0.173
38 | RRIRYRPPRLPRPRPRPMLCPRP | -0.0838
39 | RRIRTRPPRLPRPRPRPYRPPRP | -0.2
40 | RRIRTRPPRLPRPRPRPPPNPRP | 1.22
41 | RRIRLRPPRLPRPRPRPAHDPRP | 0.189
42 | RRIRLRPPRLPRPRPRPSVDPRP | -0.462
43 | RRIRRRPPRLPRPRPRPLISPRP | -0.111
44 | RRIRPRPPRLPRPRPRPWCDPRP | -0.301
45 | RRIRPRPPRLPRPRPRPTTPPRP | 0.322
46 | RRIRYRPPRLPRPRPRPGPFPRP | -0.189
47 | RRIRIRPPRLPRPRPRPYYQPRP | -0.296
48 | RRIRIRPPRLPRPRPRPEMDPRP | -0.277
49 | RRIRCRPPRLPRPRPRPLFDPRP | -0.426
50 | RRIRLRPPRLPRPRPRPDRTPRP | 0.0027

Row | Sequence | shrunken log2 fold change
51 | RRIRQRPPRLPRPRPRPDKCPRP | 0.272
52 | RRIRQRPPRLPRPRPRPWVFPRP | -0.227
53 | RRIRNRPPRLPRPRPRPNDVPRP | -0.00503
54 | RRIRQRPPRLPRPRPRPNYNPRP | -0.0928
55 | RRIRTRPPRLPRPRPRPNVYPRP | -0.683
56 | RRIRFRPPRLPRPRPRPRREPRP | 0.177
57 | RRIRGRPPRLPRPRPRPCSQPRP | 0.19
58 | RRIRRRPPRLPRPRPRPLVVPRP | 0.312
59 | RRIRCRPPRLPRPRPRPRFSPRP | -0.289
60 | RRIRVRPPRLPRPRPRPYLCPRP | 0.0235
61 | RRIRMRPPRLPRPRPRPNFHPRP | -0.0453
62 | RRIRVRPPRLPRPRPRPAGHPRP | -0.1
63 | RRIRVRPPRLPRPRPRPMVFPRP | 0.0611
64 | RRIRERPPRLPRPRPRPWTTPRP | -0.0139
65 | RRIRNRPPRLPRPRPRPRWWPRP | 0.159
66 | RRIRHRPPRLPRPRPRPCHPPRP | -0.01
67 | RRIRDRPPRLPRPRPRPWVRPRP | -0.21
68 | RRIRYRPPRLPRPRPRPLELPRP | 0.0293
69 | RRIRQRPPRLPRPRPRPQNGPRP | 0.111
70 | RRIRFRPPRLPRPRPRPRPYPRP | -0.175
71 | RRIRVRPPRLPRPRPRPPIDPRP | 0.0721
72 | RRIRYRPPRLPRPRPRPSGPPRP | -0.395
73 | RRIRMRPPRLPRPRPRPRLPPRP | 0.805
74 | RRIRLRPPRLPRPRPRPCLQPRP | -0.207
75 | RRIRWRPPRLPRPRPRPAIIPRP | -0.296

Row | Sequence | shrunken log2 fold change
76 | RRIRYRPPRLPRPRPRPRPWPRP | 0.332
77 | RRIRERPPRLPRPRPRPHRGPRP | 0.0526
78 | RRIRWRPPRLPRPRPRPSMHPRP | -0.0863
79 | RRIRHRPPRLPRPRPRPNTNPRP | -0.74
80 | RRIRYRPPRLPRPRPRPWKLPRP | -0.121
81 | RRIRCRPPRLPRPRPRPHSYPRP | -0.272
82 | RRIRVRPPRLPRPRPRPHHFPRP | -0.114
83 | RRIRGRPPRLPRPRPRPNYPPRP | 0.0611
84 | RRIRRRPPRLPRPRPRPYHFPRP | -0.116
85 | RRIRKRPPRLPRPRPRPTTAPRP | 0.271
86 | RRIRSRPPRLPRPRPRPGRFPRP | 0.406
87 | RRIRQRPPRLPRPRPRPVSMPRP | -0.181
88 | RRIRIRPPRLPRPRPRPTVVPRP | -0.0277
89 | RRIRSRPPRLPRPRPRPAMCPRP | -0.185
90 | RRIRDRPPRLPRPRPRPQYEPRP | -0.025
91 | RRIRSRPPRLPRPRPRPSDTPRP | -0.396
92 | RRIRERPPRLPRPRPRPLFWPRP | 0.219
93 | RRIRMRPPRLPRPRPRPLGPPRP | 0.716
94 | RRIRCRPPRLPRPRPRPFDCPRP | -0.95
95 | RRIRPRPPRLPRPRPRPPNSPRP | -0.0717
96 | RRIRYRPPRLPRPRPRPQNGPRP | -0.152
97 | RRIRHRPPRLPRPRPRPRVLPRP | -0.0249
98 | RRIRDRPPRLPRPRPRPRCPPRP | 0.131
99 | RRIRDRPPRLPRPRPRPSCSPRP | -0.253
100 | RRIRVRPPRLPRPRPRPCQKPRP | -0.0265

Row | Sequence | shrunken log2 fold change
101 | RRIRDRPPRLPRPRPRPFCHPRP | -0.00713
102 | RRIRFRPPRLPRPRPRPHYFPRP | -0.161
103 | RRIRPRPPRLPRPRPRPKNAPRP | -0.0349
104 | RRIRPRPPRLPRPRPRPPGWPRP | 0.484
105 | RRIRKRPPRLPRPRPRPKTYPRP | -0.156
106 | RRIRYRPPRLPRPRPRPMMMPRP | -0.497
107 | RRIRIRPPRLPRPRPRPFIRPRP | -0.358
108 | RRIRARPPRLPRPRPRPRCRPRP | 0.427
109 | RRIRIRPPRLPRPRPRPKSYPRP | -0.605
110 | RRIRIRPPRLPRPRPRPFKRPRP | -0.446
111 | RRIRMRPPRLPRPRPRPPEIPRP | 0.48
112 | RRIRWRPPRLPRPRPRPIMRPRP | 0.0401
113 | RRIRRRPPRLPRPRPRPLQNPRP | 0.045
114 | RRIRMRPPRLPRPRPRPSRVPRP | 0.885
115 | RRIRLRPPRLPRPRPRPIRTPRP | 0.0758
116 | RRIRVRPPRLPRPRPRPGKWPRP | -0.141
117 | RRIRIRPPRLPRPRPRPVYMPRP | -0.678
118 | RRIRQRPPRLPRPRPRPWAIPRP | 0.0485
119 | RRIRERPPRLPRPRPRPMKLPRP | -0.0902
120 | RRIRQRPPRLPRPRPRPPWKPRP | 0.467
121 | RRIRLRPPRLPRPRPRPKKKPRP | 0.141
122 | RRIRGRPPRLPRPRPRPAALPRP | 0.912
123 | RRIRFRPPRLPRPRPRPQKNPRP | 0.16
124 | RRIRTRPPRLPRPRPRPWPSPRP | -0.00931
125 | RRIRRRPPRLPRPRPRPFHSPRP | 0.00922

Row | Sequence | shrunken log2 fold change
126 | RRIRWRPPRLPRPRPRPWLFPRP | 0.0264
127 | RRIRERPPRLPRPRPRPHNLPRP | -0.47
128 | RRIRFRPPRLPRPRPRPLFRPRP | -0.372
129 | RRIRMRPPRLPRPRPRPVIIPRP | -0.331
130 | RRIRLRPPRLPRPRPRPDDTPRP | -0.0691
131 | RRIRARPPRLPRPRPRPCKMPRP | 0.145
132 | RRIRWRPPRLPRPRPRPYWPPRP | -0.022
133 | RRIRGRPPRLPRPRPRPETLPRP | 1.37
134 | RRIRCRPPRLPRPRPRPWNYPRP | -0.282
135 | RRIRLRPPRLPRPRPRPCSNPRP | -0.47
136 | RRIRLRPPRLPRPRPRPNSHPRP | -0.404
137 | RRIRMRPPRLPRPRPRPNNIPRP | -0.564
138 | RRIRTRPPRLPRPRPRPMIPPRP | -0.12
139 | RRIRVRPPRLPRPRPRPIVQPRP | -0.223
140 | RRIRYRPPRLPRPRPRPQGCPRP | -0.557
141 | RRIRKRPPRLPRPRPRPPCCPRP | 0.39
142 | RRIRIRPPRLPRPRPRPFWSPRP | 0.0627
143 | RRIRARPPRLPRPRPRPKNKPRP | 0.216
144 | RRIRTRPPRLPRPRPRPRMEPRP | -0.0325
145 | RRIRARPPRLPRPRPRPQATPRP | 0.389
146 | RRIRYRPPRLPRPRPRPRYVPRP | -0.0777
147 | RRIRWRPPRLPRPRPRPEWQPRP | 0.0276
148 | RRIRPRPPRLPRPRPRPMVVPRP | -0.153
149 | RRIRVRPPRLPRPRPRPFFAPRP | 0.238
150 | RRIRFRPPRLPRPRPRPHYCPRP | -0.197
